Data: patent US20200377595A1 (Chugai, published 2020)
Positions count from the first letter of the chain named. In names and notes the source's numbering stands. One block for each binder: values may come before it.

Columns and labels:
human CD137 = target: T1, human CD137 (human, UniProt Q07011 24-186); experiment: ECL, IgG with biotinylated antigen on streptavidin plate, log axis
T1 construct: soluble Biacore analyte; also called hCD137; recombinant human CD137

recombinant human CD3 = target: T2, recombinant human CD3 (human); experiment: SPR, Ab captured by anti-Fc, 37 C
T2 construct: also called hCD3

[1] = target: T3, biotin labeled human IgG1 Fc (human, UniProt P01857-1 104-330 = IgG part, limits assumed, biotin-labeled); experiment: bead ELISA, IgG
T3 construct: domain: Fc region; control antigen; also called human Fc

[2] = target: T4, biotin-labeled cynomolgus monkey CD137 fused to human IgG1 Fc fragment (cynomolgus monkey; human, UniProt Q07011 24-186, limits assumed, biotin-labeled); experiment: ELISA, IgG
T4 construct: also called cyno CD137-Fc; not shown: human IgG1 Fc fragment
T4 chain: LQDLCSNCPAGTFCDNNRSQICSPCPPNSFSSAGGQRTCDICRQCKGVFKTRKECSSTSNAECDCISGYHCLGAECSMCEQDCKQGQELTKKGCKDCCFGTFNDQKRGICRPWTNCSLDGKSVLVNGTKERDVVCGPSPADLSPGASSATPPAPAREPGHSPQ

[3] = target: T5, biotin-labeled human CD137 fused to human IgG1 Fc fragment (human, biotin-labeled); experiment: bead ELISA; no competitor
T5 construct: also called human CD137-Fc; biotin-human CD137-Fc

B3: DADU01_3#002 (antibody, IgG1, V domains shown)
VH: QVQLVESGGGLVQPGRSLRLSCAASGFTFSNAWMHWVRQAPGKGLEWVAQIKDKQNLYNAYYAESVKGRFTISRDDSKNSIYLQMNSLKTEDTAVYYCHYVHYASASTVLPAFGVDAWGQGTTVTVSS
VL: DIVMTQSPLSLPVTPGEPASISCRSSQSLVHSNRNTYLHWYQQKPGQAPRLLIYKVSNRFSGVPDRFSGSGSGTDFTLKISRVEAEDVGVYYCGQGTQVPYTFGQGTKLEIK
notes: IgG1; also called dBBDu124
- RLU [1]: 1920 RLU

B4: DXDU01_3#019 (antibody, IgG1, V domains shown)
VH: QVQLVESGGGLVQPGRSLRLSCAASGFTFSIAWMHWVRQAPGKGLEWVAQIKDKVNGYTAYYAESVKGRFTISRDDSKNSIYLQMNSLKTEDTAVYYCRYVHYAAYYDVLGYGGVDAWGQGTTVTVSS
VL: B3 VL
notes: IgG1; also called dBBDu125
- RLU [1]: 3260 RLU

Results, then the binder that gave them:

- binding result (human CD137): binds
B1: dBBDu_011 (antibody, V domains shown)
VH: QVQLVESGGGLVQPGRSLRLSCAASGFTFSNAWMHWVRQAPGKGLEWVAQIKDKSSLYNTYYAPSVKGRFTISRDDSKNSIYLQMNSLKTEDTAVYYCRYVHYGASYGFLFAGYGVDAWGQGTTVTVSS
VL: B3 VL
notes: converted to IgG with human H and L chain constant domains; also called clone 011

- Kd (recombinant human CD3): 19.7 nM
- koff (recombinant human CD3): 0.00161 s⁻¹
- kon (recombinant human CD3): 81800 M⁻¹ s⁻¹
B2: GPC3/CD137xCD3 trispecific antibody (other)
VH 1: QVQLQQWGAGLLKPSETLSLTCAVYGGSFSGYYWSWIRQSPEKGLEWIGEINHGGYVTYNPSLESRVTISVDTSKNQFSLKLSSVTAADTAVYYCARDYGPGNYDWYFDLWGRGTLVTVSS
VL 1: EIVLTQSPATLSLSPGERATLSCRASQSVSSYLAWYQQKPGQAPRLLIYDASNRATGIPARFSGSGSGTDFTLTISSLEPEDFAVYYCQQRSNWPPALTFGGGTKVEIK
VH 2: QVQLVESGGGLVQPGRSLRLSCAASGFTFSNAWMHWVRQAPGKGLEWVAQIKDRANSYNTYYAESVKGRFTISRDDSKNSIYLQMNSLKTEDTAVYYCRYVHYTTYAGSSFSYGVDAWGQGTTVTVSS
VL 2: B3 VL with S28P
VH 3: QVQLVQSGAEVKKPGASVTVSCKASGYTFTDYEMHWIRQPPGEGLEWIGAIDGPTPDTAYSEKFKGRVTLTADKSTSTAYMELSSLTSEDTAVYYCTRFYSYTYWGQGTLVTVSS
VL 3: B3 VL with S28P
notes: mAb AB made by CrossMab and Fab-arm exchange; silent Fc (L235R, G236R, S239K, N297A); also called anti-GPC3/CD137xCD3

- binding result [2]: binds
- ELISA signal [3]: 3240
B5: dBBDu181 (antibody, IgG1, V domains shown)
VH: B3 VH with V48I, K54R, Q55G, L57N, A60N, E64P, S105T, V109L, P111G, F113Y
VL: B3 VL
notes: IgG1
